Experimental data from patent publication US20240239894A1 (AstraZeneca / MedImmune, published 2024).

Legend:
[1] = target: T1, Cyno B7-H4-Fc (Cyno B7H4 ECD, FcTM_6His) (cynomolgus monkey); assay: HTRF binding, murine IgG1
T1 construct: extracellular domain; also called cynomolgus B7-H4-Fc

[2] = target: T2, huB7-H3 (human, UniProt Q5ZPR3 29-461, limits assumed); assay: ELISA, absorbance 450 nm, antigen human B7-H3 (ECD) Fc
T2 construct: Sourced antigen; construct not described; also called Human B7-H3
T2 sequence (looked up): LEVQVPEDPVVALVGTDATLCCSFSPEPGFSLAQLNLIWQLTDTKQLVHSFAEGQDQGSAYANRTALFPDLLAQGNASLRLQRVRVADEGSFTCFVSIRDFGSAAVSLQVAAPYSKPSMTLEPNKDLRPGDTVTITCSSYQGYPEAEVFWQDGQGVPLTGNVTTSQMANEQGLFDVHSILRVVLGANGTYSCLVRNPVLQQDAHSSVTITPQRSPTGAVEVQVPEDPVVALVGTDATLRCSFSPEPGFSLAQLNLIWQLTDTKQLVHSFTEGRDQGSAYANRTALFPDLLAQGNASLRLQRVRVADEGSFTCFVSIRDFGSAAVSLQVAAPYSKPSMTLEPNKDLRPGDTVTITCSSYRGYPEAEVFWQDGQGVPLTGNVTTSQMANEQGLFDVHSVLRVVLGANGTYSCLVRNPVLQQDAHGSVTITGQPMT

[3] = target: T3, huB7-H2 (human, UniProt O75144 19-258); assay: ELISA, absorbance 450 nm, antigen human B7-H2 (ECD) F10H
T3 construct: Sourced antigen; construct not described; also called Human B7-H2
T3 sequence (looked up): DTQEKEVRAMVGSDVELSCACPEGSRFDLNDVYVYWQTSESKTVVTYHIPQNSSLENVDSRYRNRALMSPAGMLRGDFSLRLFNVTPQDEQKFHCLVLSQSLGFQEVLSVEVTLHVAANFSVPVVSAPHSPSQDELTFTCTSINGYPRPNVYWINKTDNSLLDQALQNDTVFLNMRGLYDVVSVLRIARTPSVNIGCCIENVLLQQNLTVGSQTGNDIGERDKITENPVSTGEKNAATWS

[4] = target: T4, huB7-H1 (human, UniProt Q9NZQ7 19-238); assay: ELISA, absorbance 450 nm, antigen human B7-H1(ECD) F10H
T4 construct: Sourced antigen; construct not described; also called Human B7-H1

[5] = target: T5, huBTN1A1 (human, UniProt Q13410 27-242, limits assumed); assay: ELISA, absorbance 450 nm, antigen human BTN1A1 GST
T5 construct: Sourced antigen; construct not described; also called Human BTN1A1
T5 sequence (looked up): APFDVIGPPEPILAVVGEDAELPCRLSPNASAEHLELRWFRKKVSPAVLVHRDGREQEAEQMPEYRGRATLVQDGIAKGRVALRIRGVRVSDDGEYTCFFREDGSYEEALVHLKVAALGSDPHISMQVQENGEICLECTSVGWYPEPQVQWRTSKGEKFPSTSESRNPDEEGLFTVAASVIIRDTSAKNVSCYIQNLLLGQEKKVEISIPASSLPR

[6] = target: T6, huBTN3A2 (human, UniProt P78410 30-248, limits assumed); assay: ELISA, absorbance 450 nm, antigen human BTN3A2 GST
T6 construct: Sourced antigen; construct not described; also called Human BTN3A2

[7] = target: T7, huHHLA2 (human, UniProt Q9UM44 23-344); assay: ELISA, absorbance 450 nm, antigen human HHLA2 GST
T7 construct: Sourced antigen; construct not described; also called Human HHLA2
T7 sequence (looked up): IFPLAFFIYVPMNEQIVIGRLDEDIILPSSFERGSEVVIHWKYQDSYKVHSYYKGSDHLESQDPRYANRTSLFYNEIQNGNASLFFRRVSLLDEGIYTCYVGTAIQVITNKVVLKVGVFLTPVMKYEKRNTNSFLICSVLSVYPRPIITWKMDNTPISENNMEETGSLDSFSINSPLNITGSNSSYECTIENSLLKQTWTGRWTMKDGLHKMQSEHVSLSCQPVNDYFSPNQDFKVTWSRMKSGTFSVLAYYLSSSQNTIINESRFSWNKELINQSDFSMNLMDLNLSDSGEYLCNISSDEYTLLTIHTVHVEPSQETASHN

[8] = target: T8, Human B7-H4-Fc (Human B7H4 ECD, Fc_6His) (human); assay: HTRF binding, murine IgG1
T8 construct: also called FcHis6 tagged human B7-H4
T8 sequence (Q7Z7D3 whole entry, looked up): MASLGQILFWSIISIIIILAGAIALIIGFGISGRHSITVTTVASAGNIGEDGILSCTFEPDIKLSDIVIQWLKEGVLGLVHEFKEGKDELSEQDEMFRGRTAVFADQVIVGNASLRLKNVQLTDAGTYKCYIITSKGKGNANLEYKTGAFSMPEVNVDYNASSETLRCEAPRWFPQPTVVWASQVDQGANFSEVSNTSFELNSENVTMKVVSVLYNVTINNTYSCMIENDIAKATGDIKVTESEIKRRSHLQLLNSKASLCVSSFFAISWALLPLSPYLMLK

[9] = target: T9, huBTNL3 (human, UniProt Q6UXE8 18-237, limits assumed); assay: ELISA
T9 construct: Sourced antigen; construct not described; also called Human BTNL3
T9 sequence (looked up): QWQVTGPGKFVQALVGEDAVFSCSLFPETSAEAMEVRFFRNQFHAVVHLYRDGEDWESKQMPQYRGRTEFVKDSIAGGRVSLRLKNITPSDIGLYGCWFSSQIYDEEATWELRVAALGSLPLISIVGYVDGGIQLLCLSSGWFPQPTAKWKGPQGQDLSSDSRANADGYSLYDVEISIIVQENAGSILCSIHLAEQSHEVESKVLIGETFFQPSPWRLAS

[10] = target: T10, huBTN2A1 (human, UniProt Q7KYR7 29-248, limits assumed); assay: ELISA
T10 construct: Sourced antigen; construct not described; also called Human BTN2A1
T10 sequence (looked up): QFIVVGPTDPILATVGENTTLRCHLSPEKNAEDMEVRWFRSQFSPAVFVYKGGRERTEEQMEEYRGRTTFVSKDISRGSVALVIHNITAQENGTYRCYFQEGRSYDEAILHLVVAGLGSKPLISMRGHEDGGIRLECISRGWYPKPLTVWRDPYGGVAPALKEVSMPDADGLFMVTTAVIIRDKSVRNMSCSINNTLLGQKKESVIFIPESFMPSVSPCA

[11] = target: T11, Murine B7-H4-Fc (Mouse B7H4 ECD, Fc_6His) (mouse, UniProt Q7TSP5 25-257); assay: HTRF binding, murine IgG1
T11 construct: extracellular domain; also called mouse B7-H4-Fc; FcHis6 tagged murine B7-H4
T11 sequence (Q7TSP5 whole entry, looked up): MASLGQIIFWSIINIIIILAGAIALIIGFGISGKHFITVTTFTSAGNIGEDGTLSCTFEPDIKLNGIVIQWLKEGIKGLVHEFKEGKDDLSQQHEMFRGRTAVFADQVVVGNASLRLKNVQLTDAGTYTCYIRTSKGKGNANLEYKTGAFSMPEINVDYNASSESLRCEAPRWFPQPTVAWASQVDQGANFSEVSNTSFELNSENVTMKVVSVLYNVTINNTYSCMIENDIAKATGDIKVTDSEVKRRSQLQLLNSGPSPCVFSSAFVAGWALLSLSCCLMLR

T6 sequence (P78410 30-248 limits assumed): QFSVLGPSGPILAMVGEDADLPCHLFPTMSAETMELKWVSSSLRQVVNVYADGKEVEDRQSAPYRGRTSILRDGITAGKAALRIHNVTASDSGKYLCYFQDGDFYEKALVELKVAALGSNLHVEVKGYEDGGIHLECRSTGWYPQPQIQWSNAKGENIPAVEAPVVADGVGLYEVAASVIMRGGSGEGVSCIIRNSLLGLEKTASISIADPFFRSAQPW
T4 sequence (Q9NZQ7 19-238 limits assumed): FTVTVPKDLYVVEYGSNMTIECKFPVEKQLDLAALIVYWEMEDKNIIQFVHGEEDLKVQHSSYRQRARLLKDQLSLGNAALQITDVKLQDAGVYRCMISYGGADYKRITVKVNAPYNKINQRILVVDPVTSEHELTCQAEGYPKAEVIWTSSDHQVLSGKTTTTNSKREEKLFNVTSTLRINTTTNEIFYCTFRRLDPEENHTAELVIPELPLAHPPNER

B1: ZY0EOB-F05 murine IgG1 (antibody, V domains shown)
VH: QVQLQESGPGLVKPSQTLSLTCTVSDGSISSGGYYWSWIRQHPGKGLEWIGNIYYSGSTYYNPSLKSRVTISVDTSKNQFSLKLNSVTAADTAVYYCATEKALATVTPSGYENYYTVDVWGQGTTVTVSS
VL: DIQLTQSPSFLSASVGDRVTITCWASQGISSYLAWYQQKPGKAPKLLIYAASTLQSGVPSRFSGSGSGTEFTLTISSLQPEDFATYYCQHLNSYPLTFGGGTKVEIK
[1]
  EC50: 320 pM
  Max: 2400
[2]
  binding result: no binding
[3]
  binding result: no binding (tested: 10 µg/ml (antigen))
[4]
  binding result: no binding (tested: 10 µg/ml (antigen))
[5]
  binding result: no binding (tested: 10 µg/ml (antigen))
[6]
  binding result: no binding (tested: about 10 µg/ml (antigen))
[7]
  binding result: no binding (tested: about 10 µg/ml (antigen))
[8]
  EC50: 300 pM
  Max: 3020
[9]
  binding result: no binding
[10]
  binding result: no binding
[11]
  EC50: 380 pM
  Max: 2190

B2: human ZY0EOB-F05 (antibody, V domains shown)
VH: QVQLQESGPGLVKPSQTLSLTCTVSDGSISSGGYYWSWIRQHPGKGLEWIGNIYYSGSTYYNPSLKSRVTISVDTSKNQFSLKLNSVTAADTAVYYCATEKALATVTPSGYENYYTVDVWGQGTTVTVSS
VL: DIQLTQSPSFLSASVGDRVTITCWASQGISSYLAWYQQKPGKAPKLLIYAASTLQSGVPSRFSGSGSGTEFTLTISSLQPEDFATYYCQHLNSYPLTFGGGTKVEIK
[2]
  binding result: no binding
[3]
  binding result: no binding (tested: 10 µg/ml (antigen))
[4]
  binding result: no binding (tested: 10 µg/ml (antigen))
[5]
  binding result: no binding (tested: 10 µg/ml (antigen))
[6]
  binding result: no binding (tested: about 10 µg/ml (antigen))
[7]
  binding result: no binding (tested: about 10 µg/ml (antigen))

B3: human ZY0EO5-E07 (antibody, V domains shown)
VH: QVQLQESGPGLVKPSQTLSLTCTVSGGSISSGGYYWSWIRQHPGKGLEWIGNIYYSGSTYYNPSLKSRVTISVDTSKNQFSLKLSSVTAADTAVYYCAREKALASVIPSGYENYYVVDVWGQGTTVTVSS
VL: DIQLTQSPSFLSASVGGRVTITCWASQGIAGYLAWYQQKPGKAPKLLIYAASTLQSGVPSRFSGSGSGTEFTLTISSLQPEDFATYYCQHLNSYPLTFGGGTKVEIK
[2]
  binding result: no binding
[3]
  binding result: no binding (tested: 10 µg/ml (antigen))
[4]
  binding result: no binding (tested: 10 µg/ml (antigen))
[5]
  binding result: no binding (tested: 10 µg/ml (antigen))
[6]
  binding result: no binding (tested: about 10 µg/ml (antigen))
[7]
  binding result: no binding (tested: about 10 µg/ml (antigen))

B4: ZY0EO5-E07 murine IgG1 (antibody, V domains shown)
VH: QVQLQESGPGLVKPSQTLSLTCTVSGGSISSGGYYWSWIRQHPGKGLEWIGNIYYSGSTYYNPSLKSRVTISVDTSKNQFSLKLSSVTAADTAVYYCAREKALASVIPSGYENYYVVDVWGQGTTVTVSS
VL: DIQLTQSPSFLSASVGGRVTITCWASQGIAGYLAWYQQKPGKAPKLLIYAASTLQSGVPSRFSGSGSGTEFTLTISSLQPEDFATYYCQHLNSYPLTFGGGTKVEIK
notes: also called ZY0E05-E07; E05-E07
[1]
  EC50: 710 pM
  Max: 1700
[2]
  binding result: no binding
[3]
  binding result: no binding (tested: 10 µg/ml (antigen))
[4]
  binding result: no binding (tested: 10 µg/ml (antigen))
[5]
  binding result: no binding (tested: 10 µg/ml (antigen))
[6]
  binding result: no binding (tested: about 10 µg/ml (antigen))
[7]
  binding result: no binding (tested: about 10 µg/ml (antigen))
[8]
  EC50: 680 pM
  Max: 2150
[9]
  binding result: no binding
[10]
  binding result: no binding
[11]
  EC50: 730 pM
  Max: 1700

B5: human ZY0EP0-C07 (antibody, V domains shown)
VH: QVQLVESGGVLVKPGGSLRLSCAASGFTLSDYYMSWIRQAPGMGLEWVSYISSSGSTIYYTDSVKGRFTISRDSAKNSLYLQMNSLRAEDTAVYYCARDGVGFDYWGQGTLVTVSS
VL: EIVLTQSPGTLSLFPGERATLSCRASQSVSSSYLAWYQQKPGQSPRLLIYAASSRATGIPDRFSGSGSGTDFTLTISRLEPEDFAVYYCQQYGSSPLYTFGQGTKLEIK
[2]
  binding result: no binding
[3]
  binding result: no binding (tested: 10 µg/ml (antigen))
[4]
  binding result: no binding (tested: 10 µg/ml (antigen))
[5]
  binding result: no binding (tested: 10 µg/ml (antigen))
[6]
  binding result: no binding (tested: about 10 µg/ml (antigen))
[7]
  binding result: no binding (tested: about 10 µg/ml (antigen))
